Experiments:
Conditions in all cases: remark: other sources report otherwise
[1] = molecular target: full-length wild-type APOBEC3G (human), Q9HC16; experiment: SEC-SAXS; ligand-free A3Gfl; SEC (Superdex 200 Increase 5/150 GL) with co-flow SAXS, 25 °C, 2.5 mg/mL A3Gfl loaded (about 1.3 mg/mL after SEC), 50 mM phosphate pH 6.0, 200 mM NaCl, 2 mM β-ME, 5% glycerol, 200 µM Na2-EDTA; species separated by SVD/EFA and Gaussian decomposition
[2] = molecular target: full-length wild-type APOBEC3G (human), Q9HC16; experiment: SEC-SAXS; A3Gfl 2.5 mg/mL with the 40-mer ssDNA CCdZ-T30-oligo at a 1 to 2 molar ratio; SEC-SAXS, 25 °C, 50 mM phosphate pH 6.0, 200 mM NaCl, 2 mM β-ME, 5% glycerol, 200 µM Na2-EDTA; Gaussian decomposition
[3] = molecular target: full-length wild-type APOBEC3G (human), Q9HC16; experiment: SEC-SAXS; ligand-free A3Gfl; SEC (Superdex 200 Increase 5/150 GL) with co-flow SAXS, 25 °C, 2.5 mg/mL A3Gfl loaded (about 1.3 mg/mL after SEC), 50 mM phosphate pH 6.0, 200 mM NaCl, 2 mM β-ME, 5% glycerol, 200 µM Na2-EDTA; species separated by SVD/EFA and Gaussian decomposition; remark: listed apart in the source

stoichiometry N [1]: 4
stoichiometry N [2]: 4
stoichiometry N [3]: 2
B1: full-length wild-type APOBEC3G, Q9HC16 1-384 (enzyme)
chain: MKPHFRNTVERMYRDTFSYNFYNRPILSRRNTVWLCYEVKTKGPSRPPLDAKIFRGQVYSELKYHPEMRFFHWFSKWRKLHRDQEYEVTWYISWSPCTKCTRDMATFLAEDPKVTLTIFVARLYYFWDPDYQEALRSLCQKRDGPRATMKIMNYDEFQHCWSKFVYSQRELFEPWNNLPKYYILLHIMLGEILRHSMDPPTFTFNFNNEPWVRGRHETYLCYEVERMHNDTWVLLNQRRGFLCNQAPHKHGFLEGRHAELCFLDVIPFWKLDLDQDYRVTCFTSWSPCFSCAQEMAKFISKNKHVSLCIFTARIYDDQGRCQEGLRTLAEAGAKISIMTYSEFKHCWDTFVDHQGCPFQPWDGLDEHSQDLSGRLRAILQNQEN
